Assay [1] addresses OS9 (Osteosarcoma amplified 9), endogenous human (UniProt Q13438). Description: co-immunoprecipitation (FLAG-agarose IP, Western blot quantitation). Conditions: SEL1L-/- HEK293T cells; n = 3; mean ± SEM; parent: est. 1.0; read off a plot.
Assay [2] addresses HRD1 (HMG-CoA reductase degradation 1), endogenous human, Q86TM6-3. Described as above. Conditions: SEL1L-/- HEK293T cells; n = 3; mean ± SEM; parent: est. 1.0; read off a plot.
In assay [3] the target is mouse SEL1L S658P/F668Y-FLAG (mouse). Description: co-IP; anti-FLAG agarose IP from lysates of SEL1L-/- HEK293T cells transfected with SEL1L-FLAG variants, blots for endogenous partners; 150 mM NaCl, 0.2% NP-40, 0.1% Triton X-100, 25 mM Tris-HCl pH 7.5, overnight at 4 C.
Assay [4] concerns the target OS9 (Osteosarcoma amplified 9), endogenous human (UniProt Q13438). Description: co-immunoprecipitation (FLAG-agarose IP, Western blot quantitation). Conditions: SEL1L-/- HEK293T cells; n = 3; mean ± SEM; parent: est. 1.0; read off a plot. This is another data set of the same source.
For assay [5], the target named is HRD1 (HMG-CoA reductase degradation 1), endogenous human, Q86TM6-3. The assay is described as above. Conditions: SEL1L-/- HEK293T cells; n = 3; mean ± SEM; parent: est. 1.0; read off a plot. This is another data set of the same source.
The target of assay [6] is SEL1L^S658P, endogenous mouse (homozygous KI liver) (mouse (endogenous in liver)). Description: co-IP; IP of endogenous SEL1L or HRD1 (home-made antibody, protein A agarose) from livers of 5-week-old WT, HET and KI mice; 150 mM NaCl, 1% NP-40, 25 mM Tris-HCl pH 7.5.

Chain of HRD1 (HMG-CoA reductase degradation 1), endogenous human, Q86TM6-3 (Q86TM6 other isoform, or with tags, fused parts or gaps): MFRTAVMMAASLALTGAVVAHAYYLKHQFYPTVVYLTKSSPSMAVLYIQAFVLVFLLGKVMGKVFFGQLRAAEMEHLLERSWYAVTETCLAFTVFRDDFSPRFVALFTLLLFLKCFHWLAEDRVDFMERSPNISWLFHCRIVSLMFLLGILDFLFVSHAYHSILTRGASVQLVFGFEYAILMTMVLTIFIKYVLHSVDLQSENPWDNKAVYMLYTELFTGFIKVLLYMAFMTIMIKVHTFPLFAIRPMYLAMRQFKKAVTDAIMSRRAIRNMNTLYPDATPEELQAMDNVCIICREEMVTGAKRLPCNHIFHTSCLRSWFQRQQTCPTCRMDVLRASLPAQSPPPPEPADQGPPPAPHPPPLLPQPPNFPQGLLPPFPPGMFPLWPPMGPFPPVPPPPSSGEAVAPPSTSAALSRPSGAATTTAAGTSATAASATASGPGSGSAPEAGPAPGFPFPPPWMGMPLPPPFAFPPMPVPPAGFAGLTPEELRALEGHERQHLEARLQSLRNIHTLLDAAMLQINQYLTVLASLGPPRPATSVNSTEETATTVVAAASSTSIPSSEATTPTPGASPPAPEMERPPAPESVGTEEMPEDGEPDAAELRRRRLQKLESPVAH
Chain of UniProt Q13438 (Q13438 26-667): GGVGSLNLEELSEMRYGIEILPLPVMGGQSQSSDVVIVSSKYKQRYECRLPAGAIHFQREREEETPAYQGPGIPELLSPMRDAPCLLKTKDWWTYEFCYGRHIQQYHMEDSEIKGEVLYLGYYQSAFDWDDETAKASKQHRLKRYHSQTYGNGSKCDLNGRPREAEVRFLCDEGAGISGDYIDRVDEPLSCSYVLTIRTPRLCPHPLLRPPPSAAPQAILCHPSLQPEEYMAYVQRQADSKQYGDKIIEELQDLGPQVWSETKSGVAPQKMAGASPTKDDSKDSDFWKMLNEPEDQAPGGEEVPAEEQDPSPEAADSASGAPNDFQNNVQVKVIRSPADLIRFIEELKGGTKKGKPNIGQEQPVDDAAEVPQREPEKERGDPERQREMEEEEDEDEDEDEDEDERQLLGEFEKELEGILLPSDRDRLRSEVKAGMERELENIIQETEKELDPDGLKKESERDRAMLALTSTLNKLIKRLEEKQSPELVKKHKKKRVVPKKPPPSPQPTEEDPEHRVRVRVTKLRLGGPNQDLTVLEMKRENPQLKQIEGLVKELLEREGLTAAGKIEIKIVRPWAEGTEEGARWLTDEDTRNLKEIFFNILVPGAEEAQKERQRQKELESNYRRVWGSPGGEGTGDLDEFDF

Turning to “mouse SEL1L (WT)-FLAG (from UniProt Q9Z2G6-1) F668A”, the response in assay [1] was found to be 1 a.u; in assay [2], 0.07 a.u.

As for “HRD1 (HMG-CoA reductase degradation 1), endogenous human (from UniProt Q86TM6-3 1-616) (enzyme)”, in assay [3], the fold increase against SEL1L S658P was determined as 2 fold.

Regarding “mouse SEL1L (WT)-FLAG (from UniProt Q9Z2G6-1) S658P; F668Y”, the response in assay [4] is 0.95 a.u.

With “mouse SEL1L (WT)-FLAG (from UniProt Q9Z2G6-1) S658P; F668A”, the response was determined as 0.97 a.u in assay [1] and 0.11 a.u in assay [2].

As to “mouse SEL1L (WT)-FLAG (from UniProt Q9Z2G6-1) F668Y”, the response in assay [4] is 1 a.u; in assay [5] it was 0.9 a.u.

As to “HRD1, endogenous mouse (liver) (from UniProt Q9DBY1 1-612) (enzyme)”, the fold reduction against WT and HET livers in assay [6] was 5 fold.

Turning to “mouse SEL1L (WT)-FLAG (from UniProt Q9Z2G6-1) S658P”, the response amounted to 1 a.u in assay [1], 0.15 a.u in assay [2], 0.95 a.u in assay [4] and 0.17 a.u in assay [5].

These data come from publication PMC10873344.
